The values that follow come from publication PMC2955050.

Non-standard residues stand in square brackets, D forms with d. No end group written: not given here. pY = N[C@@H](Cc1ccc(OP(=O)(O)O)cc1)C(=O)O

This experiment concerns the target recombinant DLAR catalytic domain (Drosophila).

As for TAEPD[pY]GALYE [Cuticle peptide TAEPD(pY)GALYE], the Kcat/Km of dephosphorylation of the peptide by DLAR (malachite green phosphatase assay) came out at 300000 sec^-1M^-1.
On to TRDI[pY]ETDYYRK [Insulin receptor peptide TRDI(pY)ETDYYRK], for which the Kcat/Km of dephosphorylation of the peptide by DLAR (malachite green phosphatase assay) was found to be 264000 sec^-1M^-1.
With VIGD[pY]VCRLCK (cysteine pairing not given here) [Nervous Fingers peptide VIGD(pY)VCRLCK], the Kcat/Km of dephosphorylation of the peptide by DLAR (malachite green phosphatase assay) was 196000 sec^-1M^-1.
For CDDS[pY]FGNKC (cysteine pairing not given here) [Myospheroid peptide CDDS(pY)FGNKC] the value was 143000 sec^-1M^-1; for RDDT[pY]TAHAG [Abelson peptide RDDT(pY)TAHAG], 180000 sec^-1M^-1.
